Experimental data taken from publication PMC10447908 (2023).

Legend:
Experiment in all cases: FACS
[1] = target: SARS-CoV-2 Spike receptor binding domain, Omicron variant (SARS-CoV-2, UniProt P0DTC2, biotinylated in vitro when needed)
[2] = target: SARS-CoV-2 Spike receptor binding domain, Delta variant (SARS-CoV-2, UniProt P0DTC2, biotinylated in vitro when needed)
[3] = target: SARS-CoV-2 Spike receptor binding domain, Wuhan (ancestral) variant (SARS-CoV-2, UniProt P0DTC2, biotinylated in vitro when needed)

| Binder | IC50 [1] [nM] | IC50 [2] [nM] | IC50 [3] [nM] |
| --- | --- | --- | --- |
| Xiang-Liu 1 (designed binder) NDDELHMLMTDLVYEALHFAKDEEIKKRVFQLFELADKAYKNNDRQKLEKVVEELKELLERLLSEEDPCACESILKFEAKVEGLLQALTRKLEAVSGRLAVLENRIIDKEWILQKIYEIMRLLDELGHAEASMRVSDLIYEFMKKGDERLLEEAERLLEEVER | 36.4 | 5.1 | 9.3 |
| Xiang-Liu 2 (designed binder) NDDELHMLMTDLVYEALHFAKDEEIKKRVFQLFELADKAYKNNDRQKLEKVVEELKELLERLLSEEDPCACESILKFEAKVEGLLQALTRKLEAVSGRLAVLENRIIQVQLVESGGGLVQAGGSLRLSCAASGRTFSNDALGWFRQAPRKEREFVAAINWNSGTYYADSVKGRFTISRDNAKNTVYLQMNSLKPEDTAVYSCAAASDYGLPREDFLYDYWGQGTQVTVSS | 5.2 | 6.8 | 12.6 |
